Article doi:10.1101/2024.01.22.576510 (bioRxiv, 2024)

Biological target: human Na+-taurocholate co-transporting polypeptide (NTCP), detergent-purified, tags cleaved (Homo sapiens, UniProt Q14973)
Experiment: cryo-EM structure

Sequence of human Na+-taurocholate co-transporting polypeptide (NTCP), detergent-purified, tags cleaved (Q14973 whole entry): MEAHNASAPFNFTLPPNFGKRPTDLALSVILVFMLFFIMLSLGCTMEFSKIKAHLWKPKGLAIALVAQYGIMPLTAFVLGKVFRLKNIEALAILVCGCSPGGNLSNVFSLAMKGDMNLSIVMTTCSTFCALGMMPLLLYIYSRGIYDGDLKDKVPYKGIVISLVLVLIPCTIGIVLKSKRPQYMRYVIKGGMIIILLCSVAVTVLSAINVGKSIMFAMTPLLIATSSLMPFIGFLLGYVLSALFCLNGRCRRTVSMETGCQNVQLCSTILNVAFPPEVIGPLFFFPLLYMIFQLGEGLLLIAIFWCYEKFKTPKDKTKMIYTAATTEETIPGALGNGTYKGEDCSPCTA

B1: Fab3 (Fab, V domains shown)
VH: EVQLVESGGGLVQPGGSLRLSCAASGFNVSSSYIHWVRQAPGKGLEWVASISPYYSYTSYADSVKGRFTISADTSKNTAYLQMNSLRAEDTAVYYCARYQYDYYYSYYAGLDYWGQGTLVTVSS
VL: DIQMTQSPSSLSASVGDRVTITCRASQSVSSAVAWYQQKPGKAPKLLIYSASSLYSGVPSRFSGSRSGTDFTLTISSLQPEDFATYYCQQYRYSLITFGQGTKVEIK
**Q.** Does B1 bind?
**A.** binds
